The target of this experiment is 1-32–captured Pentamer (HCMV Pentamer bound by 1-32 IgG) (human cytomegalovirus (strain Towne) | human) (UniProt P17176). The experiment is described as follows: BLI. In general terms: In BLI a coated tip is dipped into the sample, and binding shifts an interference pattern.

B1: untagged NRP2 (receptor)
chain: RGQPDPPCGGRLNSKDAGYITSPGYPQDYPSHQNCEWIVYAPEPNQKIVLNFNPHFEIEKHDCKYDFIEIRDGDSESADLLGKHCGNIAPPTIISSGSMLYIKFTSDYARQGAGFSLRYEIFKTGSEDCSKNFTSPNGTIESPGFPEKYPHNLDCTFTILAKPKMEIILQFLIFDLEHDPLQVGEGDCKYDWLDIWDGIPHVGPLIGKYCGTKTPSELRSSTGILSLTFHTDMAVAKDGFSARYYLVHQEPLENFQCNVPLGMESGRIANEQISASSTYSDGRWTPQQSRLHGDDNGWTPNLDSNKEYLQVDLRFLTMLTAIATQGAISRETQNGYYVKSYKLEVSTNGEDWMVYRHGKNHKVFQANNDATEVVLNKLHAPLLTRFVRIRPQTWHSGIALRLELFGCRVTDAPCSNMLGMLSGLIADSQISASSTQEYLWSPSAARLVSSRSGWFPRIPQAQPGEEWLQVDLGTPKTVKGVIIQGARGGDSITAVEARAFVRKFKVSYSLNGKDWEYIQDPRTQQPKLFEGNMHYDTPDIRRFDPIPAQYVRVYPERWSPAGIGMRLEVLGCDWTDSKPTVETLGPTVKSEETTTPYPTEEEATECGENCSFEDDKDLQLPSGFNCNFDFLEEPCGWMYDHAKWLRTTWASSSSPNDRTFPDDRNFLRLQSDSQREGQYARLISPPVHLPRSPVCMEFQYQATGGRGVALQVVREASQESKLLWVIREDQGGEWKHGRIILPSYDMEYQIVFEGVIGKGRSGEIAIDDIRISTDVPLENCMEPISAFAGENFKVDIPEIHEREGYEDEIDDEYEVDWSNSSSATSGSGAPSTDKEKSWLYTLDPILITIIAMSSLGVLLGATCAGLLLYCTCSYSGLSSRSCTTLENYNFELYDGLKHKVKMNHQKCCSEA
As usually defined, the Kd is the constant that tells how readily two partners part at equilibrium. High values mean weaker binding, low ones tighter binding. In the case of B1, the Kd is 133 nM. This counts as sub-micromolar.
